{
  "source": "paper PMC8091128",
  "biological_target": "T1, α-catenin (cleaved from GST–α-catenin), P35221",
  "T1 chain": "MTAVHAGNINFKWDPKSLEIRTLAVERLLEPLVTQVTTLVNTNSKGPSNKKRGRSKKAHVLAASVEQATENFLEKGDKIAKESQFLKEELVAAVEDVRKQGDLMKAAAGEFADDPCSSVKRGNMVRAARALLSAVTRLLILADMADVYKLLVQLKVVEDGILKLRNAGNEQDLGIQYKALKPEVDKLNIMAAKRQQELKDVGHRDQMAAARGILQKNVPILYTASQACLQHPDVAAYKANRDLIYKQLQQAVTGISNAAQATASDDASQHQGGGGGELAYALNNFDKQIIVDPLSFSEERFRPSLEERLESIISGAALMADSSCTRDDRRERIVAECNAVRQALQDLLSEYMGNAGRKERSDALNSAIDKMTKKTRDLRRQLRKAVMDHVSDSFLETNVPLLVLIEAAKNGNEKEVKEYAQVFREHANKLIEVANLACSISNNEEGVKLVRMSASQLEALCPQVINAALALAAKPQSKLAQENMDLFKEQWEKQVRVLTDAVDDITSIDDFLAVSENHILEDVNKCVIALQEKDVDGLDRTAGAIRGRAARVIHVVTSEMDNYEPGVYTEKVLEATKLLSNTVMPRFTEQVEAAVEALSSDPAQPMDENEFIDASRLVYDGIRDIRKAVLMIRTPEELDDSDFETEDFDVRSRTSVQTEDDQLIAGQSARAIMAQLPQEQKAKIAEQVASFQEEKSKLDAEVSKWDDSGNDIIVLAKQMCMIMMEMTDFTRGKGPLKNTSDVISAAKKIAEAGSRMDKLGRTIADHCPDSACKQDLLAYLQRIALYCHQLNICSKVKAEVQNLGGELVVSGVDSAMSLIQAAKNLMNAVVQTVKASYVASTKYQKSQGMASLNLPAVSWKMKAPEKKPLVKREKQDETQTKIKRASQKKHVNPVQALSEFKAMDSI",
  "experiment": "GST pull-down (in vitro reconstitution of cadherin complex), blot quantification",
  "settings": "chain shown with the change;; parent: est. 1.0; read off a plot",
  "data": [
    {"binder": "GST–β-catenin WT, P35222 S675D (protein) MATQADLMELDMAMEPDRKAAVSHWQQQSYLDSGIHSGATTTAPSLSGKGNPEEEDVDTSQVLYEWEQGFSQSFTQEQVADIDGQYAMTRAQRVRAAMFPETLDEGMQIPSTQFDAAHPTNVQRLAEPSQMLKHAVVNLINYQDDAELATRAIPELTKLLNDEDQVVVNKAAVMVHQLSKKEASRHAIMRSPQMVSAIVRTMQNTNDVETARCTAGTLHNLSHHREGLLAIFKSGGIPALVKMLGSPVDSVLFYAITTLHNLLLHQEGAKMAVRLAGGLQKMVALLNKTNVKFLAITTDCLQILAYGNQESKLIILASGGPQALVNIMRTYTYEKLLWTTSRVLKVLSVCSSNKPAIVEAGGMQALGLHLTDPSQRLVQNCLWTLRNLSDAATKQEGMEGLLGTLVQLLGSDDINVVTCAAGILSNLTCNNYKNKMMVCQVGGIEALVRTVLRAGDREDITEPAICALRHLTSRHQEAEMAQNAVRLHYGLPVVVKLLHPPSHWPLIKATVGLIRNLALCPANHAPLREQGAIPRLVQLLVRAHQDTQRRTSMGGTQQQFVEGVRMEEIVEGCTGALHILARDVHNRIVIRGLNTIPLFVQLLYSPIENIQRVAAGVLCELAQDKEAAEAIEAEGATAPLTELLHSRNEGVATYAAAVLFRMSEDKPQDYKKRLDVELTSSLFRTEPMAWNETADLGLDIGAQGEPLGYRQDDPSYRSFHSGGYGQDALGMDPMMEHEMGGHHPGADYPVDGLPDLGHAQDLMDGLPPGDSNQLAWFDTDL", "values": [
      {"measurement": "ratio to parent", "result": 1.1, "unit": "fold change"}
    ]}
  ]
}
